Data as given in patent US20170247476A1 (Amgen, published 2017).

Key:
[1] = molecular target: HER2 (human, UniProt P04626 23-1255); assay: cell-based or functional assay
[2] = molecular target: T1, human CD3ε (human, UniProt P07766 22-207); assay: FACS on T cells
T1 construct: On T cells CD3ε is part of the TCR-CD3 complex; also called T cells

Row | Binder | EC50 Cytolysis (ng/mL), +MMP2; TDCC of SKOV-3 cells with pan T cells [1] [ng/mL] | EC50 Cytolysis (ng/mL), -MMP2; TDCC of SKOV-3 cells with pan T cells [1] [ng/mL] | binding result [2]
1 | CD3ε(1-27)-FURINcsV1-aCD3-aHER2-Xbody (bispecific antibody) chain 1: not shown chain 2: QDGNEEMGGITQTPYKVSISGTTVILTGGGGSGGGGSGGGGSRRRRREVQLVESGGGLVQPGGSLKLSCAASGFTFNSYAMNWVRQAPGKGLEWVARIRSKYNNYATYYADSVKGRFTISRDDSKNTAYLQMNNLKTEDTAVYYCVRHGNFGNSYVSWWAYWGQGTLVTVSSGGGGSGGGGSELVMTQTPSSLSASLGDRVTISCRASQDISNYLNWYQQKPDGTVKLLIYYTSRLHSGVPSRFSGSGSGTDYSLTISNLEQEDIATYFCQQGNTLPLTFGAGTKLEIKASTKGPSVFPLAPCSRSTSESTAALGCLVKDYFPEPVTVSWNSGALTSGVHTFPAVLQSSGLYSLSSVVTVPSSNFGTQTYTCNVDHKPSNTKVDKTVGGGGSAAAEPKSSDKTHTCPPCPAPEAAGGPSVFLFPPKPKDTLMISRTPEVTCVVVDVSHEDPEVKFNWYVDGVEVHNAKTKPREEQYNSTYRVVSVLTVLHQDWLNGKEYKCKVSNKALPAPIEKTISKAKGQPREPQVYTLPPSREEMTKNQVSLTCLVKGFYPSDIAVEWESNGQPENNYDTTPPVLDSDGSFFLYSDLTVDKSRWQQGNVFSCSVMHEALHNHYTQKSLSLSPGK | 0.332 | 0.276 | 
2 | CD3ε(1-27)-MMP-2cs-aCD3-aHER2-BiFc (bispecific antibody, Tested undigested, with the MMP2 cleavage site intact; also called CD3ε(1-27)-MMP-cs-aCD3-aHER2-BiFc) chain 1: not shown chain 2: QDGNEEMGGITQTPYKVSISGTTVILTGPLGIAGQAAAEPKSSDKTHTCPPCPAPEAAGGPSVFLFPPKPKDTLMISRTPEVTCVVVDVSHEDPEVKFNWYVDGVEVHNAKTKPREEQYNSTYRVVSVLTVLHQDWLNGKEYKCKVSNKALPAPIEKTISKAKGQPREPQVYTLPPSREEMTKNQVSLTCLVKGFYPSDIAVEWESNGQPENNYDTTPPVLDSDGSFFLYSDLTVDKSRWQQGNVFSCSVMHEALHNHYTQKSLSLSPGK |  |  | no binding
3 | CD3ε(1-27)-MMP-2csV3-aCD3-aHER2-Xbody (bispecific antibody) chain 1: not shown chain 2: QDGNEEMGGITQTPYKVSISGTTVILTGGGGSGGGGSGGGGSPLGLAGEVQLVESGGGLVQPGGSLKLSCAASGFTFNSYAMNWVRQAPGKGLEWVARIRSKYNNYATYYADSVKGRFTISRDDSKNTAYLQMNNLKTEDTAVYYCVRHGNFGNSYVSWWAYWGQGTLVTVSSGGGGSGGGGSELVMTQTPSSLSASLGDRVTISCRASQDISNYLNWYQQKPDGTVKLLIYYTSRLHSGVPSRFSGSGSGTDYSLTISNLEQEDIATYFCQQGNTLPLTFGAGTKLEIKASTKGPSVFPLAPCSRSTSESTAALGCLVKDYFPEPVTVSWNSGALTSGVHTFPAVLQSSGLYSLSSVVTVPSSNFGTQTYTCNVDHKPSNTKVDKTVGGGGSAAAEPKSSDKTHTCPPCPAPEAAGGPSVFLFPPKPKDTLMISRTPEVTCVVVDVSHEDPEVKFNWYVDGVEVHNAKTKPREEQYNSTYRVVSVLTVLHQDWLNGKEYKCKVSNKALPAPIEKTISKAKGQPREPQVYTLPPSREEMTKNQVSLTCLVKGFYPSDIAVEWESNGQPENNYDTTPPVLDSDGSFFLYSDLTVDKSRWQQGNVFSCSVMHEALHNHYTQKSLSLSPGK |  | 5.49 | 
4 | CD3ε(1-27)-MMP-2csV1-aCD3-aHER2-Xbody (bispecific antibody) chain 1: not shown chain 2: QDGNEEMGGITQTPYKVSISGTTVILTGGGGSGGGGSGGGGSGPLGIAGQEVQLVESGGGLVQPGGSLKLSCAASGFTFNSYAMNWVRQAPGKGLEWVARIRSKYNNYATYYADSVKGRFTISRDDSKNTAYLQMNNLKTEDTAVYYCVRHGNFGNSYVSWWAYWGQGTLVTVSSGGGGSGGGGSELVMTQTPSSLSASLGDRVTISCRASQDISNYLNWYQQKPDGTVKLLIYYTSRLHSGVPSRFSGSGSGTDYSLTISNLEQEDIATYFCQQGNTLPLTFGAGTKLEIKASTKGPSVFPLAPCSRSTSESTAALGCLVKDYFPEPVTVSWNSGALTSGVHTFPAVLQSSGLYSLSSVVTVPSSNFGTQTYTCNVDHKPSNTKVDKTVGGGGSAAAEPKSSDKTHTCPPCPAPEAAGGPSVFLFPPKPKDTLMISRTPEVTCVVVDVSHEDPEVKFNWYVDGVEVHNAKTKPREEQYNSTYRVVSVLTVLHQDWLNGKEYKCKVSNKALPAPIEKTISKAKGQPREPQVYTLPPSREEMTKNQVSLTCLVKGFYPSDIAVEWESNGQPENNYDTTPPVLDSDGSFFLYSDLTVDKSRWQQGNVFSCSVMHEALHNHYTQKSLSLSPGK |  | 4.41 | 
5 | CD3ε(1-27)-FURINcsV2-aCD3-aHER2-Xbody (bispecific antibody) chain 1: not shown chain 2: QDGNEEMGGITQTPYKVSISGTTVILTGGGGSGGGGSGGGGSGQSSRHRRALEVQLVESGGGLVQPGGSLKLSCAASGFTFNSYAMNWVRQAPGKGLEWVARIRSKYNNYATYYADSVKGRFTISRDDSKNTAYLQMNNLKTEDTAVYYCVRHGNFGNSYVSWWAYWGQGTLVTVSSGGGGSGGGGSELVMTQTPSSLSASLGDRVTISCRASQDISNYLNWYQQKPDGTVKLLIYYTSRLHSGVPSRFSGSGSGTDYSLTISNLEQEDIATYFCQQGNTLPLTFGAGTKLEIKASTKGPSVFPLAPCSRSTSESTAALGCLVKDYFPEPVTVSWNSGALTSGVHTFPAVLQSSGLYSLSSVVTVPSSNFGTQTYTCNVDHKPSNTKVDKTVGGGGSAAAEPKSSDKTHTCPPCPAPEAAGGPSVFLFPPKPKDTLMISRTPEVTCVVVDVSHEDPEVKFNWYVDGVEVHNAKTKPREEQYNSTYRVVSVLTVLHQDWLNGKEYKCKVSNKALPAPIEKTISKAKGQPREPQVYTLPPSREEMTKNQVSLTCLVKGFYPSDIAVEWESNGQPENNYDTTPPVLDSDGSFFLYSDLTVDKSRWQQGNVFSCSVMHEALHNHYTQKSLSLSPGK | 0.256 | 0.112 | 
6 | CD3ε(1-27)-aCD3-aHER2-Xbody (bispecific antibody) chain 1: not shown chain 2: QDGNEEMGGITQTPYKVSISGTTVILTGGGGSGGGGSGGGGSEVQLVESGGGLVQPGGSLKLSCAASGFTFNSYAMNWVRQAPGKGLEWVARIRSKYNNYATYYADSVKGRFTISRDDSKNTAYLQMNNLKTEDTAVYYCVRHGNFGNSYVSWWAYWGQGTLVTVSSGGGGSGGGGSELVMTQTPSSLSASLGDRVTISCRASQDISNYLNWYQQKPDGTVKLLIYYTSRLHSGVPSRFSGSGSGTDYSLTISNLEQEDIATYFCQQGNTLPLTFGAGTKLEIKASTKGPSVFPLAPCSRSTSESTAALGCLVKDYFPEPVTVSWNSGALTSGVHTFPAVLQSSGLYSLSSVVTVPSSNFGTQTYTCNVDHKPSNTKVDKTVGGGGSAAAEPKSSDKTHTCPPCPAPEAAGGPSVFLFPPKPKDTLMISRTPEVTCVVVDVSHEDPEVKFNWYVDGVEVHNAKTKPREEQYNSTYRVVSVLTVLHQDWLNGKEYKCKVSNKALPAPIEKTISKAKGQPREPQVYTLPPSREEMTKNQVSLTCLVKGFYPSDIAVEWESNGQPENNYDTTPPVLDSDGSFFLYSDLTVDKSRWQQGNVFSCSVMHEALHNHYTQKSLSLSPGK | 6.73 | 6.12 | 
7 | CD3ε(1-27)-MMP-2csV1-aCD3-aHER2-Xbody, digested with MMP-2 (bispecific antibody) chain 1: not shown chain 2: IAGQEVQLVESGGGLVQPGGSLKLSCAASGFTFNSYAMNWVRQAPGKGLEWVARIRSKYNNYATYYADSVKGRFTISRDDSKNTAYLQMNNLKTEDTAVYYCVRHGNFGNSYVSWWAYWGQGTLVTVSSGGGGSGGGGSELVMTQTPSSLSASLGDRVTISCRASQDISNYLNWYQQKPDGTVKLLIYYTSRLHSGVPSRFSGSGSGTDYSLTISNLEQEDIATYFCQQGNTLPLTFGAGTKLEIKASTKGPSVFPLAPCSRSTSESTAALGCLVKDYFPEPVTVSWNSGALTSGVHTFPAVLQSSGLYSLSSVVTVPSSNFGTQTYTCNVDHKPSNTKVDKTVGGGGSAAAEPKSSDKTHTCPPCPAPEAAGGPSVFLFPPKPKDTLMISRTPEVTCVVVDVSHEDPEVKFNWYVDGVEVHNAKTKPREEQYNSTYRVVSVLTVLHQDWLNGKEYKCKVSNKALPAPIEKTISKAKGQPREPQVYTLPPSREEMTKNQVSLTCLVKGFYPSDIAVEWESNGQPENNYDTTPPVLDSDGSFFLYSDLTVDKSRWQQGNVFSCSVMHEALHNHYTQKSLSLSPGK | 0.347 |  | 
8 | aCD3-aHER2-mxb (bispecific antibody) chain 1: EVQLLEQSGAELVRPGALVKLSCKASGFKIKDYFVNWVKQRPEQGLEWIGWIDPENDNSLYGPNFQDKASITADTSSNTGYLQLSGLTSEDTAVYYCALYYGSRGDAMDYWGQGTTVTVSSGGGGSGGGGSGGGGSELVMTQTPSSLSASLGDRVTISCRASQDISNYLNWYQQKPDGTVKLLIYYTSRLHSGVPSRFSGSGSGTDYSLTISNLEQEDIATYFCQQGNTLPLTFGAGTKLEIKAAAEPKSSDKTHTCPPCPAPEAAGGPSVFLFPPKPKDTLMISRTPEVTCVVVDVSHEDPEVKFNWYVDGVEVHNAKTKPREEQYNSTYRVVSVLTVLHQDWLNGKEYKCKVSNKALPAPIEKTISKAKGQPREPQVYTLPPSRKEMTKNQVSLTCLVKGFYPSDIAVEWESNGQPENNYKTTPPVLKSDGSFFLYSKLTVDKSRWQQGNVFSCSVMHEALHNHYTQKSLSLSPGKAAAHHHHHH chain 2: not shown |  | 0.184 | 
9 | CD3ε(1-27)-aCD3-aHER2-BiFc (bispecific antibody, Non-cleavable linker between the CD3ε(1-27) fragment and the Fc) chain 1: not shown chain 2: QDGNEEMGGITQTPYKVSISGTTVILTGGGGSGGGGSGGGGSAAAEPKSSDKTHTCPPCPAPEAAGGPSVFLFPPKPKDTLMISRTPEVTCVVVDVSHEDPEVKFNWYVDGVEVHNAKTKPREEQYNSTYRVVSVLTVLHQDWLNGKEYKCKVSNKALPAPIEKTISKAKGQPREPQVYTLPPSREEMTKNQVSLTCLVKGFYPSDIAVEWESNGQPENNYDTTPPVLDSDGSFFLYSDLTVDKSRWQQGNVFSCSVMHEALHNHYTQKSLSLSPGK |  |  | no binding
10 | CD3ε(1-27)-MMP-2csV3-aCD3-aHER2-Xbody, digested with MMP-2 (bispecific antibody) chain 1: not shown chain 2: LAGEVQLVESGGGLVQPGGSLKLSCAASGFTFNSYAMNWVRQAPGKGLEWVARIRSKYNNYATYYADSVKGRFTISRDDSKNTAYLQMNNLKTEDTAVYYCVRHGNFGNSYVSWWAYWGQGTLVTVSSGGGGSGGGGSELVMTQTPSSLSASLGDRVTISCRASQDISNYLNWYQQKPDGTVKLLIYYTSRLHSGVPSRFSGSGSGTDYSLTISNLEQEDIATYFCQQGNTLPLTFGAGTKLEIKASTKGPSVFPLAPCSRSTSESTAALGCLVKDYFPEPVTVSWNSGALTSGVHTFPAVLQSSGLYSLSSVVTVPSSNFGTQTYTCNVDHKPSNTKVDKTVGGGGSAAAEPKSSDKTHTCPPCPAPEAAGGPSVFLFPPKPKDTLMISRTPEVTCVVVDVSHEDPEVKFNWYVDGVEVHNAKTKPREEQYNSTYRVVSVLTVLHQDWLNGKEYKCKVSNKALPAPIEKTISKAKGQPREPQVYTLPPSREEMTKNQVSLTCLVKGFYPSDIAVEWESNGQPENNYDTTPPVLDSDGSFFLYSDLTVDKSRWQQGNVFSCSVMHEALHNHYTQKSLSLSPGK | 0.205 |  | 
